The experiment deals with c-mpl receptor (TPO receptor), expressed from c-mpl-pcDNA3.1 in NIH-3T3 cells. The experiment is described as follows: cell-based or functional assay.

Take “recombinant human TPO (rhTPO) (from UniProt P40225 22-353) (ligand)”: the The relative fluorescence ratio (firefly/Renilla luciferase, c-fos-pGL3 reporter, NIH-3T3 transfected with c-mpl-pcDNA3.1) amounted to 1.65.

The values above are taken from patent EP2975062B1.
